Data as given in the Human Domainome abundance scans (Beltran et al. 2025).
± gives the uncertainty stated by the source.

B1: Transcription intermediary factor 1-beta, residues 620 to 671; numbered along this chain, Q13263 (parent)
chain: TLDDSATICRVCQKPGDLVMCNQCEFCFHLDCHLPALQDVPGEEWSCSLCHV

Variants of: B1
Experiment: abundance fitness (aPCA) (normalised: wild type 0, dead -1); higher = more abundant; growth selection in yeast, the domain comes from the species named
Conditions: Homo sapiens

| Variant | abundance fitness |
| --- | --- |
| W45R | -0.131 ± 0.089 |
| W45E | -0.158 ± 0.14 |
| N22I | -0.316 ± 0.21 |
| N22L | -0.561 ± 0.11 |
| N22T | -0.182 ± 0.13 |
| N22G | -0.27 ± 0.098 |
| N22P | -0.382 ± 0.19 |
| N22S | -0.066 ± 0.12 |
| A6E | 0.25 ± 0.12 |
| A6R | -0.275 ± 0.11 |
| S5N | -0.444 ± 0.36 |
| S5W | -0.307 ± 0.11 |
| S5G | -0.308 ± 0.076 |
| S5V | -0.381 ± 0.093 |
| S5T | -0.193 ± 0.13 |
| S5K | -0.03 ± 0.12 |
| E43P | -0.032 ± 0.14 |
| E43A | 0.035 ± 0.11 |
| E43Q | -0.298 ± 0.19 |
| E43H | 0.062 ± 0.22 |
| F28Q | -0.549 ± 0.31 |
| F28K | -0.427 ± 0.23 |
| F28Y | -0.09 ± 0.17 |

| Variant | abundance fitness |
| --- | --- |
| F28C | -0.211 ± 0.15 |
| F28T | -0.278 ± 0.12 |
| F28A | -0.098 ± 0.13 |
| H29G | -0.899 ± 0.18 |
| H29W | -0.908 ± 0.28 |
| H29M | -0.967 ± 0.19 |
| H29V | -0.952 ± 0.15 |
| H29Y | -0.921 ± 0.26 |
| H29D | -0.883 ± 0.29 |
| H29F | -0.864 ± 0.27 |
| H29T | -0.637 ± 0.17 |
| S48M | 0.386 ± 0.1 |
| S48V | -0.508 ± 0.085 |
| S48P | 0.152 ± 0.12 |
| S48R | 0.105 ± 0.087 |
| S48W | 0.057 ± 0.13 |
| L18Y | -0.632 ± 0.24 |
| L18S | -0.789 ± 0.15 |
| L18N | -0.662 ± 0.23 |
| L18K | -0.636 ± 0.23 |
| L18E | -0.374 ± 0.14 |
| L18W | -0.834 ± 0.17 |
| L18M | -0.599 ± 0.25 |

| Variant | abundance fitness |
| --- | --- |
| L18Q | -0.483 ± 0.3 |
| V11H | -0.659 ± 0.22 |
| V11D | -0.484 ± 0.21 |
| V11E | -0.072 ± 0.12 |
| V11R | -0.128 ± 0.088 |
| V11N | -0.142 ± 0.15 |
| L2S | -0.004 ± 0.14 |
| L2V | -0.13 ± 0.1 |
| L2D | -0.078 ± 0.17 |
| L2N | 0.017 ± 0.25 |
| L2M | 0.021 ± 0.17 |
| L2K | -0.056 ± 0.33 |
| L2G | -0.604 ± 0.16 |
| L2I | -0.112 ± 0.19 |
| A36I | -0.449 ± 0.19 |
| A36Q | -0.633 ± 0.32 |
| A36K | -0.183 ± 0.15 |
| A36D | -0.394 ± 0.16 |
| A36P | 0.077 ± 0.15 |
| A36S | 0.079 ± 0.11 |
| A36T | -0.161 ± 0.17 |
| K14L | -0.513 ± 0.46 |
| K14F | -0.424 ± 0.3 |

| Variant | abundance fitness |
| --- | --- |
| C12Y | -1 ± 0.26 |
| L49I | -0.045 ± 0.14 |
| L49K | 0.27 ± 0.11 |
| L49C | -0.282 ± 0.14 |
| L49Q | 0.263 ± 0.12 |
| L49N | 0.46 ± 0.13 |
| L49E | 0.389 ± 0.092 |
| L49V | -0.09 ± 0.082 |
| C50M | -0.65 ± 0.19 |
| C50L | -0.797 ± 0.11 |
| C50F | -0.315 ± 0.18 |
| C50A | -0.112 ± 0.096 |
| C50D | -0.183 ± 0.17 |
| C50S | -0.462 ± 0.12 |
| C50N | -0.505 ± 0.35 |
| C50T | -0.386 ± 0.13 |
| C50V | -0.513 ± 0.1 |
| H33E | 0.2 ± 0.15 |
| H33A | -0.013 ± 0.1 |
| H33Y | -0.294 ± 0.14 |
| H33I | -0.325 ± 0.23 |
| H33D | 0.086 ± 0.12 |
| H33S | 0.012 ± 0.1 |

| Variant | abundance fitness |
| --- | --- |
| H33N | -0.139 ± 0.17 |
| H33L | -0.117 ± 0.098 |
| H33W | -0.444 ± 0.13 |
| H33C | 0.217 ± 0.14 |
| H33P | -0.344 ± 0.14 |
| P15N | -0.396 ± 0.25 |
| P15E | -0.01 ± 0.14 |
| P15H | -0.132 ± 0.22 |
| P15Q | -0.559 ± 0.21 |
| P15C | -0.646 ± 0.15 |
| P15T | -0.546 ± 0.17 |
| P35L | -0.508 ± 0.12 |
| P35T | -0.552 ± 0.16 |
| P35A | -0.553 ± 0.12 |
| P35R | -0.488 ± 0.11 |
| P35Q | -0.698 ± 0.2 |
| P35N | -0.222 ± 0.17 |
| P35H | -0.431 ± 0.23 |
| P35S | -0.128 ± 0.1 |
| V40Y | -0.121 ± 0.22 |
| V40W | -0.101 ± 0.14 |
| V40F | 0.01 ± 0.12 |
| V40H | -0.361 ± 0.24 |

| Variant | abundance fitness |
| --- | --- |
| Q38H | -0.279 ± 0.2 |
| Q38G | -0.181 ± 0.1 |
| Q38V | -0.132 ± 0.099 |
| S46W | -0.131 ± 0.098 |
| S46A | 0.128 ± 0.077 |
| S46Q | 0.118 ± 0.094 |
| S46C | -0.116 ± 0.091 |
| S46N | 0.018 ± 0.13 |
| S46K | 0.155 ± 0.1 |
| S46M | 0.082 ± 0.1 |
| C21F | -0.962 ± 0.26 |
| C21E | -0.434 ± 0.16 |
| C21Q | -0.8 ± 0.35 |
| C21D | -0.575 ± 0.18 |
| C21S | -0.968 ± 0.15 |
| C21I | -0.807 ± 0.29 |
| C21A | -0.995 ± 0.16 |
| T7L | -0.41 ± 0.12 |
| T7P | -0.204 ± 0.19 |
| T7V | -0.066 ± 0.088 |
| T7S | -0.079 ± 0.09 |
| T7A | -0.123 ± 0.098 |
| T7Y | 0.007 ± 0.15 |

| Variant | abundance fitness |
| --- | --- |
| T7N | -0.176 ± 0.15 |
| C9S | -0.848 ± 0.14 |
| C9N | -0.469 ± 0.23 |
| C9A | -0.861 ± 0.15 |
| C9V | -0.902 ± 0.14 |
| C9P | -0.324 ± 0.11 |
| T1D | 0.178 ± 0.35 |
| T1S | -0.096 ± 0.17 |
| T1K | 0.109 ± 0.24 |
| T1M | -0.363 ± 0.32 |
| D3S | -0.223 ± 0.11 |
| D3K | 0.027 ± 0.2 |
| D3E | 0.13 ± 0.13 |
| D3A | -0.723 ± 0.14 |
| D3C | -0.534 ± 0.17 |
| D3W | -0.302 ± 0.12 |
| D3Q | -0.603 ± 0.18 |
| D3F | 0.053 ± 0.12 |
| R10N | 0.094 ± 0.18 |
| R10Q | -0.296 ± 0.13 |
| R10Y | -0.257 ± 0.22 |
| R10G | -0.291 ± 0.1 |
